Measured values taken from patent publication US20240317840A1.

Tests used:
[1] = target: HBsAg AD serotype (Hepatitis B virus); assay: SPR epitope binning; competitor (1st, saturating Ab): CR8087
[2] = target: HBsAg AY serotype (Hepatitis B virus); assay: as above
[3] = target: HBsAg AD serotype (Hepatitis B virus); assay: SPR epitope binning; competitor (1st, saturating Ab): NOV3540
[4] = target: HBsAg AY serotype (Hepatitis B virus); assay: as above
[5] = target: HBsAg AD serotype (Hepatitis B virus); assay: SPR epitope binning; competitor (1st, saturating Ab): NOV3832
[6] = target: HBsAg AY serotype (Hepatitis B virus); assay: as above
[7] = target: HBsAg AD serotype (Hepatitis B virus); assay: SPR epitope binning; competitor (1st, saturating Ab): NOV3841
[8] = target: HBsAg AY serotype (Hepatitis B virus); assay: as above
[9] = target: HBsAg AD serotype (Hepatitis B virus); assay: SPR epitope binning; competitor (1st, saturating Ab): NOV3842
[10] = target: HBsAg AY serotype (Hepatitis B virus); assay: as above
[11] = target: HBsAg AD serotype (Hepatitis B virus); assay: SPR epitope binning; competitor (1st, saturating Ab): HBC34 (self)
[12] = target: HBsAg AY serotype (Hepatitis B virus); assay: as above
[13] = target: HBsAg of HBV genotype D, serotype ayw (Hepatitis B virus); assay: cell-based or functional assay

Row | Substance | binding of second antibody (% of its binding as first antibody) [1] | binding of second antibody (% of its binding as first antibody) [2] | binding of second antibody (% of its binding as first antibody) [3] | binding of second antibody (% of its binding as first antibody) [4] | binding of second antibody (% of its binding as first antibody) [5] | binding of second antibody (% of its binding as first antibody) [6] | binding of second antibody (% of its binding as first antibody) [7] | binding of second antibody (% of its binding as first antibody) [8] | binding of second antibody (% of its binding as first antibody) [9] | binding of second antibody (% of its binding as first antibody) [10] | binding of second antibody (% of its binding as first antibody) [11] | binding of second antibody (% of its binding as first antibody) [12] | Virus neutralization EC50 [13] [nM]
1 | HBC34 (antibody) | 146 | 166 | 121 | 131 | 126 | 257 | 124 | 151 | 121 | 134 | 0 | 0 | –
2 | Neg. Control (antibody) | – | – | – | – | – | – | – | – | – | – | – | – | > 500
